Target: the molecule itself
Assay: SEC; LCAT alone on triple Superdex 200 Increase, run beside rHDL alone and the cross-linked mixture

B1: Lecithin:cholesterol acyltransferase (recombinant, expressed in CHO cells) (enzyme, human, UniProt P04180 25-440, looked up)
chain: FWLLNVLFPPHTTPKAELSNHTRPVILVPGCLGNQLEAKLDKPDVVNWMCYRKTEDFFTIWLDLNMFLPLGVDCWIDNTRVVYNRSSGLVSNAPGVQIRVPGFGKTYSVEYLDSSKLAGYLHTLVQNLVNNGYVRDETVRAAPYDWRLEPGQQEEYYRKLAGLVEEMHAAYGKPVFLIGHSLGCLHLLYFLLRQPQAWKDRFIDGFISLGAPWGGSIKPMLVLASGDNQGIPIMSSIKLKEEQRITTTSPWMFPSRMAWPEDHVFISTPSFNYTGRDFQRFFADLHFEEGWYMWLQSRDLLAGLPAPGVEVYCLYGVGLPTPRTYIYDHGFPYTDPVGVLYEDGDDTVATRSTELCGLWQGRQPQPVHLLPLHGIQHLNMVFSNLTLEHINAILLGAYRQGPPASPTASPEPPPPE
notes: Lecithin:cholesterol acyltransferase, human; cross-links to 'LCAT residue 1' (the N-terminus) are reported; Used for all non-cryoEM experiments (cross-linking, SEC, negative-stain EM, activity assays); also called LCAT; human LCAT; source: CHO cells, recombinant, gifted by Alan Remaley
B1: binds.
